T1: CEACAM5 protein (Acrobiosystems) (UniProt P06731 35-685)
T1 construct: also called CEACAM5 full-length protein
T1 sequence (looked up): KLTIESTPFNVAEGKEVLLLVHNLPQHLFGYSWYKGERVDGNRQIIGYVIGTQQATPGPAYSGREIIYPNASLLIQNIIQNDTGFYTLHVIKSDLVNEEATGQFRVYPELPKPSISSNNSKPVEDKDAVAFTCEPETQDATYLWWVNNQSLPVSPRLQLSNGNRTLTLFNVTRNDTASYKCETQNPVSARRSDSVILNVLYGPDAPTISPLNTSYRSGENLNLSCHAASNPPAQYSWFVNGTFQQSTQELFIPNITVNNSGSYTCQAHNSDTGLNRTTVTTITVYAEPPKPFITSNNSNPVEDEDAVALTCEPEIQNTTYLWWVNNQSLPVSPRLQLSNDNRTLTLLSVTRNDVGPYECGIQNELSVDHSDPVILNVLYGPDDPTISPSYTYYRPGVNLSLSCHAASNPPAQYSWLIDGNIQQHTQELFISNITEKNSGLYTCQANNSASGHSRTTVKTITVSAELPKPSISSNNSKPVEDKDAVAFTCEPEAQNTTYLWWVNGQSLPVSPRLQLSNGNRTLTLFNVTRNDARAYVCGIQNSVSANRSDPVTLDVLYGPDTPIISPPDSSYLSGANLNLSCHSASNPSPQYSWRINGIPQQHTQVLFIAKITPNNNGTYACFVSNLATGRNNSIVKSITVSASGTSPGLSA


Biological target: T1, CEACAM5 protein (Acrobiosystems)
Experiment: ELISA on coated CEACAM5 protein (Acrobiosystems), antibody 200 nM to 0.0004 nM

Row | binding result | Binder
1 | binds | humanized 94E12E2-06 antibody (antibody, V domains shown) VH: QVQLVQSGAEVKKPGASVKVSCKASGFNIKDNYMHWVRQAPGQGLEWIGWIDPENGDTEYDPKFQGRATMTADTSISTAYMELSRLRSDDTAVYYCNIITMATPYPMDYWGQGTLVTVSS VL: EIVLTQSPDFQSVTPKEKVTITCSASTSVIYMHWFQQKPDQSPKLWIYSTSNLASGVPSRFSGSGSGTDYTLTINSLEAEDAATYYCQQRSSYPLTFGQGTKLEIKR
2 | binds | humanized 94E12E2-04 antibody (antibody, V domains shown) VH: EVQLVESGGGLVQPGGSLRLSCAASGFNIKDNYMHWVRQAPGKGLEWIGWIDPENGDTEYDPKFQGRATMSADTSKNTAYLQMNSLRAEDTAVYYCNIITMATPYPMDYWGQGTLVTVSS VL: DIQLTQSPSSLSASVGDRVTITCSASTSVIYMHWFQQKPGKAPKLWIYSTSNLASGVPSRFSGSGSGTDYTLTISSLQPEDFATYYCQQRSSYPLTFGQGTKVEIKR
